Assays:
Assay type in all cases: biochemical
[1] = LC-MS assay of GH3 conjugation of IAA with Asp or Glu; conditions: LC-MS; for Detected auxin conjugates: IAA-Asp: IAA with Asp; for Detected auxin conjugates: IAA-Glu: IAA with Glu
Summary of the method: (§1)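 Amino acid conjugates of IAA, 2,4-D or dicamba measured by LC-MS against conjugate standards, with kinetic parameters fitted to Michaelis-Menten initial velocities. Reactions: 5 mM each of auxin, ATP and Asp or Glu with 44 to 164 μg/mL purified His-tagged GH3 (E. coli-expressed), pH 8.0 Tris, 5 mM MgCl2, 1 mM DTT, 30 °C for 3 h.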

[2] = LC-MS assay of GH3 conjugation of 2,4-D with Asp or Glu; conditions: LC-MS; for Detected auxin conjugates: 2,4-D-Asp: 2,4-D with Asp; for Detected auxin conjugates: 2,4-D-Glu: 2,4-D with Glu
Summary of the method: as §1

[3] = LC-MS assay of GH3 conjugation of dicamba with Asp or Glu; conditions: LC-MS; for Detected auxin conjugates: Dicamba-Asp: dicamba with Asp; for Detected auxin conjugates: Dicamba-Glu: dicamba with Glu
Protocol: To detect and monitor the formation of acyl conjugates with 2,4-D or dicamba, a sensitive LC-MS method was developed using the respective amino acid conjugate standards. […] […] […] The supernatant was diluted 20× in water and then analyzed by LC-MS (AB Sciex 4000 QTrap coupled with Shimadzu Nexera UHPLC) using a Phenomenex Luna 3 μm Phenyl-Hexyl (00B-4256-Y0) column. The concentration of the conjugates was calculated based on the standards. Kinetic parameters were estimated by fitting initial velocity values to the Michaelis-Menten equation.
The GH3 superfamily conjugase activity analysis of IAA, 2,4-D or dicamba with Asp or Glu was done using LC-MS to analyze the final conjugate products as described in Example 1. Protein sequences of GH3 homologs (Table 3) were obtained from public databases (NCBI, http://www.ncbi.nlm.nih.gov/) by Blast analysis of AtGH3.17 protein sequence (accession # Q9FZ87). Coding sequences were designed for optimal expression in E. coli based on the protein sequences and synthesized. Synthesized coding sequences along with N-term his-tag coding sequences were cloned into a pET24a-based E. coli expression vector. The E. coli expression vectors were transformed into OverExpress C41(DE3) cells (Lucigen) for protein expression. Recombinant E. coli strains were inoculated into 5 ml LB media supplemented with 40 mg/L kanamycin and cultured overnight at 37° C. The overnight culture (0.5 mL) was inoculated into 50 mL LB medium plus 40 mg/L kanamycin and grown at 30° C. until OD600 reached 0.6. The cultures were induced with 0.2 mM IPTG at 16° C., 230 rpm overnight. Cells were harvested by centrifugation at 7,000 rpm for 10 mins. The cell pellet from 50 mL of cell culture was frozen and thawed twice and then lysed in 800 μL lysis buffer A (150 mM NaCl, 50 mM Tris-HCl pH 8.0, 5 mM MgCl2, 10% glycerol) plus 20 mM imidazole, 1 mM DTT, 0.2 mg/ml lysozyme, 1/200 protease inhibitor cocktail (EMD set3, EDTA free) and 1/2000 endonuclease. Lysate was then centrifuged at 13,000 rpm for 30 min at 4° C. Supernatant was loaded onto 200 μL Ni-NTA columns pre-equilibrated with buffer A with 20 mM imidazole at 4° C. Each column was then washed with (1) 2×800 μL of buffer A with 10 mM imidazole, (2) 2×800 μL of buffer A with 20 mM imidazole and (3) 2×200 μL of buffer A with 50 mM imidazole. Protein was eluted with 200 μL of buffer A with 250 mM imidazole. The concentration was measured by Bradford assay. Purified protein was used in conjugation reaction assays as described in example 1.

| Molecule | Detected auxin conjugates: IAA-Asp [1] | Detected auxin conjugates: IAA-Glu [1] | Detected auxin conjugates: 2,4-D-Asp [2] | Detected auxin conjugates: 2,4-D-Glu [2] | Detected auxin conjugates: Dicamba-Asp [3] | Detected auxin conjugates: Dicamba-Glu [3] |
| --- | --- | --- | --- | --- | --- | --- |
| SlGH3-14: GH3 protein, SGN-E745758 (protein, listed as Solanum lycopersicum) MKMMVENIEKKFDAEEVIEDFEVLTKDAGRIQEETLEKILKENGGTEYLKQWGLNGRTDVETFKACVPIVGHNDLEPYIQRIADGDLSPILTGKPIETISLSSGTTQGKPKFVPFNDELMDSTMQIFKTSFAFRNREFPIGNGKALQFIYSSKQFKTKGGLAAGTATTNVYRNAQFKKTMNAMSTPVCSPDEVIFGPDFQQSLYCHLLSGLIFRDEVQVVSSTFAHSIVHAFRTFEQVWEELVVDIREGVLSSRVTVPSIRLAMSKLLKPDPELAETIYSKCSSLSNWYGLIPELFPNTKYIYGIMTGSMEPYLKKLRHYAGELPLLSADYGSSEGWVGVNVNPKFPPEMVTYAVLPNIGYFEFLPLEENLVGVEQANSPVGLTEVKLGEEYEIVFTNFAGLYRYRLGDVVKIKGFHNGTPELQFVCRRNLLLSINIDKNTEKDLQLAVEAAGKHLVDEKLEVMDFTSHVNVSADPGHYVIFWELSGEATDEILQECCNCLDKSFLDAGYVSSRKVNAIGALELRIVKRGTFHKILDHFVGLGGAVSQFKTPRCVGPKNSSLIQILSSNVVKSYSSTAFC | No | No | No | No | No | No |
| SlGH3-8: GH3 protein, Solyc07g054580.2 (protein, listed as Solanum lycopersicum) MTNINCKDKIETDIIGWFDEVADDSAVVQRRTLRRILEMNHGVEYLKKWIGDIKIEEIDENLLESTYASLVPLASHADIEPFTKRIADGDTTPLLTQQPITNLSLSSGTTDGRQKFVPFTHHSSQTTLQIFKLAAAYRSRIYPIRRGGRILEFIYSSKQCKTKGGIIVGTATTHYYASDEFKIKQQQTKSFTCSPQEVISCGDYKQSTYCHLLLGLYFSHEVEFVTSAFAYSIVEAFRSFEEMWKELCHDIREGSLSSIINIDKVRKSVSGITQPNPELASRIESICVELERADWFSIIPKLWPNAKYVYSIMTGSMMPYLTKLRHYAGELPLVSADYGSTESWIGVNLDPSNPPEKVTFAVVPTFSYFEFIPLYKHKSNYNYQNVNLNSTNDDYIEGNSMPLCQVKSGQQYEIVITTFTGLYRYRLGDVVEVDGFYKKTPKLNFICRRNLILAINIDKNTEKDLQLVVERGARILSKGTRRAELVDFTSHANVTKQPGHYVIYWEIKGEIDEKVLDECCRDMDASFVDHGYVVSRRTKSIGPLELCIVERGTFKKILESYIGNGAALSQFKTPRCTSNKELLNILNVCTIKRFYSTAYG | Yes | Yes | Yes | Yes | No | No |
| VvGH3-9: GH3 protein, accession XP_002280738.1 (protein, listed as Vitis vinifera) MLEKMEEFKAEKVIEEFEELTKDAGRVQRETLKKILEDNASAEYLQKQGLNGRTDPESYQACVPLVTHADLVPYIKRIADGDTSPVLTGKPIKTMSLSSGTTQGKQKYVPFNDELLETTLQIYRTSFAFRNREFPVRNGMALQFIYGSKQFKTEGGLFAGTATTNVFSSSQFKTTMKAIESPCCSPDEVIFGPDFRQSLYCHLLCGLIHHNEIQLVSSTFAHSIVYAFRTFEQVWEQLCADIQDGVLTKDVTVPSIRAVMSKLLKPNPELAEWIYKKCSGLSNWYGVIPALFPNVKYVYGIMTGSMEPYLKKLRHYAGDVPLLSADYGSSEGWIGANINPKLPPELATYAVLPNIGYFEFIPLRGSAEEDRQDKIQSSFESKPVGLTEVKIGEEYEIIVTNFAGLYRYRLGDVVKIAGFHNMTPELQFVCRRNLLLTINIDKNTEKDLQLAVEAAAEVLAPEKVEVIDFTSQVDKSTDPGHYVIFWEISGEVSVEVSSECCNCLDRSFVDAGYISSRKVNSIGPLELKLVRRGTFQKILDHYLGIGGVLSQYKTPRCVNPNNNMVLQILYSNVVKSHFSTAFG | No | No | No | No | No | No |
| ZmACN26159: GH3 protein, accession ACN26159 (protein, Zea mays) MTICSSEEIIDEFELLTRDARRVQQDTLRKILELNGDAEYLNRFNLGRRTDSKSFKSCIPLCVHSDIESYIQRIADGDDSPVLTGKPITSLSLSSGTTQGKPKFLPFNDELLESTFQIFRTSYAFRNREYPIVNGKALQFVYGSKQVFTQGGILAATATTNLYRSQRFKEAMKDVMTQCCSPDEVIFGPDFHQSLYCHLLCGLINSDEVQFVFSPFAHSLVHAFHSLEEVWEDLCADIRDGVLSKRVTAPSIRQAVSKILRPNPELASSIYIKCQSLSNWYGVIPTLWPNVKYIYGIMTGSMEPYLKKLRHYAGHLPLLSADYGASEGWVGSNINPTLPPEEVTYAVLPNIAYFEFIPLEKPKWEETEICSSVHYIESEPVGLTEVEVGKIYEVVITNFAGLYRYRLGDIVKIAGFHNATPELQFICRRSLVLSVNIDKNTEKDLQLAVEAAEKLLAAEKLEVVDFTSLVDRSSEPGHYVIFWELSSDDGASEDVLSGCASCMDLAFADAGYVGSRKTQTIGALELRVLRKGAFAQVMNHYLSLGGAVSQFKTPRFVSQSNSKVLQILSRNVTRSYFSTAYGL | No | No | No | No | No | No |
| SlGH3-1: GH3 protein, SL2.40ch01: 78555183-78557768 (protein, listed as Solanum lycopersicum) MLEKIEMKFDPEEVIEEFEALTKEAGKVQEETLKKILEENGSTVYLQQWGLNGRTDPEIFKSCVPLVTHKDLEPYIQRIADGDLSPVLTGKPITTISLSSGTTQGRPKFVPFNDELMESTMQIYKTSFAFRNREFPIENGKALQFIYSSKQFKTKGGLAAGTATTNVYRNAHFKKTMRAMQTPCCSPDEVIFGPDFHQSLYCHLLCGLIFRDEVQVVSSTFAHSIVHAFRTFEQVWEELVADIREGVISSRVTVPSMRSAIMKLLKPDPEQADSIYNKCSGLSNWYGLIPVLFPSARYIYGIMTGSMEPYLKKLRHYAGELPLLSADYGSSEGWIGANVNPKLPPELVTYAVLPNIGYFEFIPLRVNLDGLEPTPVGLAEVKLGEEYEIVVTNFAGLYRYRLGDVVKIKGFHNATPELQFICRSNLILSINIDKSTEKDLQLAVEAAARLLVDEKLEVVDFTSHANVATDPGHYVVFWELSGEASDETLQECCNCLDKSFVDAGYVGSRKVNVIGALELRVVKKGTFHKILDHFVGLGGAVSQFKTPRCVGQNNSRLLQILCYDVVKSYFSTAY | Yes | No | No | No | No | No |

— patent US20150351390A1, “COMPOSITIONS AND METHODS FOR AUXIN-ANALOG CONJUGATION” (PIONEER HI-BRED INTERNATIONAL, INC., priority 2012, published 2015)
